Biological target: human ACE2 protein (Angiotensin-Converting Enzyme 2) (human, UniProt Q9BYF1 18-740)
Experiment: phage-displayed construct probed with ACE2

Sequence of human ACE2 protein (Angiotensin-Converting Enzyme 2) (Q9BYF1 18-740 limits assumed): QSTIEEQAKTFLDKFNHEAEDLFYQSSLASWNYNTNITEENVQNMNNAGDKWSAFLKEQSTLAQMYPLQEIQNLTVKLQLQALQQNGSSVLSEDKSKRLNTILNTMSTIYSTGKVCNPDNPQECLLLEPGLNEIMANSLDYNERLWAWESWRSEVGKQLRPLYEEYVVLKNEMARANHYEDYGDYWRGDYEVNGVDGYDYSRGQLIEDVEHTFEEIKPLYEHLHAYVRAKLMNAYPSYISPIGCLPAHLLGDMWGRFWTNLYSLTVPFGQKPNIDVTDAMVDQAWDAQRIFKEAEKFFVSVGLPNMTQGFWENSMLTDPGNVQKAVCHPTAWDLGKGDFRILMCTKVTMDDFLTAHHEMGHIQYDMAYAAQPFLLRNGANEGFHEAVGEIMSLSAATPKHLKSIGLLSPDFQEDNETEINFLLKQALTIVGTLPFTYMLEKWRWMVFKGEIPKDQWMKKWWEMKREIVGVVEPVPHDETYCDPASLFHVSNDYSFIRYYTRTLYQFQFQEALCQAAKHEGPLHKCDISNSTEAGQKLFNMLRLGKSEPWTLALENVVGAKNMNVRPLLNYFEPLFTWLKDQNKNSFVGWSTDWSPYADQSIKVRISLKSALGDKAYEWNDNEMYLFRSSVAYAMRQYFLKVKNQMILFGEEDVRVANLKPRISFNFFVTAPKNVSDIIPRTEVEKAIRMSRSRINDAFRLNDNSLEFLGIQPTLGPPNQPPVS

B1: initial SARS CoV RBM construct (residues S432-T486) displayed on fth-1 phage (other)
chain: STGNYNYKYRYLRHGKLRPFERDISNVPFSPDGKPCTPPALNCYWPLNDYGFYTT
  binding result: no binding

From patent US20180334480A1 (RAMOT AT TEL AVIV UNIVERSITY, published 2018)
